Data set [1] concerns Csx1-Crn2 H495A (Marinitoga piezophila). Nature of the data set: EMSA. To be noted: apparent; both CARF and Crn2 sites intact, no cA4 cleavage in Crn2 site; cyclic tetra-adenylate, head-to-tail closed ring (no free 5' or 3' end); EMSA: 10 nM labelled cA4, 20 mM Tris-HCl pH 7.5, 150 mM NaCl, 2 mM MgCl2, 2 uM BSA, 10 min at 25 C; native 15% PAGE in 1x TBE at 28 C. (In general: In EMSA bound probe runs differently from free probe, usually more slowly.)

Data set [2] deals with Csx1-Crn2 S452Y (Marinitoga piezophila). Nature of the data set: EMSA. To be noted: cyclic tetra-adenylate, head-to-tail closed ring (no free 5' or 3' end); EMSA: 10 nM labelled cA4, 20 mM Tris-HCl pH 7.5, 150 mM NaCl, 2 mM MgCl2, 2 uM BSA, 10 min at 25 C; native 15% PAGE in 1x TBE at 28 C.

For AAAA [cA4 (cyclic tetra-adenylate)], the Kd in data set [1] came out at 20 nM; in data set [2], 1000 nM.
